We go through three molecules from patent US20170240629A1 (Hoffmann-La Roche, published 2017).

The target of one test is rabbit IL-1beta (rabbit, UniProt P14628 117-268, limits assumed). The test can be described thus: SPR (BIAcore).
Test [1] concerns the target T1, human IL-1beta (human, UniProt P01584 117-269). The test can be described thus: cell-based or functional assay.
For test [2], the target named is T1, human IL-1beta. Briefly: cell-based or functional assay. This is another data set of the same source.
Test [3] concerns the target T1, human IL-1beta. The test can be described thus: cell-based or functional assay. This is another data set of the same source.
The target in test [4] is T2, murine IL-1beta (murine, UniProt P10749 118-269). The test can be described thus: ELISA, murine IL-1beta coated, Example 6. On the technique in general: ELISA stands for enzyme-linked immunosorbent assay.
Description: (§1) The binding analysis was carried out using an enzyme-linked immunosorbent assay (ELISA)-based technology. […] The EC₅₀ was calculated with a four parameter logistic model using GraphPad Prism 6.0 software.
For test [5], the target named is T3, cynomolgus IL-1beta (cynomolgus, UniProt P79182 117-268). Briefly: ELISA, cynomolgus IL-1beta coated, Example 5.
Description: as §1
The target in test [6] is T4, His-tagged human IL-1beta (human, UniProt P01584 117-269).
T4 construct: also called human His-tagged IL-1beta protein (Sino Biologics 10139-H07E); not shown: His tag
The test can be described thus: ELISA, His-tagged human IL-1beta coated, Example 4 variant 2.

The target of test [7] is T1, human IL-1beta. The test can be described thus: ELISA, human IL-1beta (Peprotech) coated, Example 4 variant 1.
Description: as §1
The target of test [8] is T2, murine IL-1beta. Briefly: ELISA, murine IL-1beta coated, Example 6; based on MW 150 kDa.
Description: as §1
Test [9] addresses T1, human IL-1beta. The test can be described thus: SPR (BIAcore); antibody captured by anti-Fc, IL-1beta injected. On the technique in general: In SPR one partner is held on a chip, and binding of the other changes the refractive index at the surface.
Description: (§2) All experiments were performed at 25° C. using HBS-P (10 mM His, 140 mM NaCl, 0.05% Tween 20 pH 7.4) as running and dilution buffer. Anti-human or anti-mouse Fc antibodies were immobilized on a Series S CM5 Sensor Chip (GE Healthcare) using standard amine coupling chemistry. […] The dissociation phase was monitored for 600 sec by washing with running buffer. […] The surface was regenerated by injecting 3 M MgCl2 (for anti-human Fc antibody) or 10 mM Glycine pH 1.5 (for anti-mouse Fc antibody) for 60 sec at a flow rate of 5 μl/min. Bulk refractive index differences were corrected by subtracting the response obtained from a mock surface. Blank injections were subtracted (double referencing). The derived curves were fitted to a 1:1 Langmuir binding model using the BIAevaluation software.
Test [10] has as its target T3, cynomolgus IL-1beta. Described as above.
Description: as §2
The target in test [11] is T2, murine IL-1beta. The test is described as above.
Description: as §2
In a further test the target is rat IL-1beta (rat, UniProt Q63264 117-268). The test is described as above.
Test [12] has as its target T3, cynomolgus IL-1beta. The test can be described thus: ELISA, cynomolgus IL-1beta coated, Example 5; based on MW 150 kDa.
Description: as §1
The target in test [13] is T4, His-tagged human IL-1beta. The test can be described thus: ELISA, His-tagged human IL-1beta coated, Example 4 variant 2; based on MW 150 kDa.
Description: as §1
Test [14] concerns the target T1, human IL-1beta. The test can be described thus: ELISA, human IL-1beta (Peprotech) coated, Example 4 variant 1; based on MW 150 kDa.
Description: as §1
Test [15] has as its target T1, human IL-1beta. The test can be described thus: SPR inhibition; 10 nM human IL-1beta pre-incubated with antibody, injected over immobilised human IL-1RI (competitor).
Description: All experiments were performed at 25° C. using HBS-P (10 mM His, 140 mM NaCl, 0.05% Tween 20 pH 7.4) as running and dilution buffer. Human IL-1RI was immobilized on a Series S CM5 Sensor Chip (GE Healthcare) using standard amine coupling chemistry. […] The surface was regenerated by injecting 10 mM NaOH for 60 sec at a flow rate of 5 μl/min. Bulk refractive index differences were corrected by subtracting the response obtained from a mock surface.
Test [16] has as its target T4, His-tagged human IL-1beta. Briefly: competition ELISA, His-tagged IL-1beta coated; competitor Fc-tagged human IL-1 receptor type I (Example 7); based on MW 150 kDa.
Description: (§3) The IC₅₀ was calculated with a four parameter logistic model using GraphPad Prism 6.0 software.
In test [17] the target is T4, His-tagged human IL-1beta. Briefly: competition ELISA, His-tagged IL-1beta coated; competitor Fc-tagged human IL-1 receptor type II (Example 8); based on MW 150 kDa.
Description: as §3
Test [18] addresses T4, His-tagged human IL-1beta. The test can be described thus: competition ELISA, His-tagged IL-1beta coated; competitor Fc-tagged human IL-1 receptor type I (Example 7); IL-1beta receptor I (example 7).
Description: as §3
The target in test [19] is T4, His-tagged human IL-1beta. Briefly: competition ELISA, His-tagged IL-1beta coated; competitor Fc-tagged human IL-1 receptor type II (Example 8); IL-1beta receptor II (example 8).
Description: as §3
Test [20] has as its target T5, human PDGF-BB (human, UniProt P01127 82-190).
T5 construct: also called huPDGF-BB
The test can be described thus: SPR; whole antibody.

Test [21] addresses T5, human PDGF-BB. The test can be described thus: ELISA, antigen coated.
The next test deals with T6, murine PDGF-BB (murine, UniProt P31240 82-190).
T6 construct: also called muPDGF-BB
Briefly: ELISA, antigen coated.

The next test has as its target rat PDGF-BB (rat, UniProt Q05028 74-182). The test can be described thus: ELISA, antigen coated.
The next test deals with T7, human PDGF-AA (human, UniProt P04085 87-211, limits assumed).
T7 construct: also called huPDGF-AA
The test can be described thus: ELISA, antigen coated.

In test [22] the target is T5, human PDGF-BB. Briefly: cell-based or functional assay.
For test [23], the target named is T5, human PDGF-BB. Briefly: cell-based or functional assay. This is another data set of the same source.
Test [24] addresses T5, human PDGF-BB. Briefly: SPR; apparent KD** of the whole antibody.
For test [25], the target named is T5, human PDGF-BB. The test can be described thus: SPR (BIAcore T200) kinetic screening; PDGF-BB coupled on C1 chip, antibody injected.
Test [26] addresses T5, human PDGF-BB. Briefly: competition ELISA; biotinylated human PDGF-BB with antibody on coated Fc-tagged PDGF-BB receptor (competitor).
Description: as §3
In test [27] the target is T5, human PDGF-BB. The test can be described thus: SPR; Fab.
Test [28] has as its target T5, human PDGF-BB. The test can be described thus: SPR; apparent KD of the Fab.
Test [29] deals with T5, human PDGF-BB. Briefly: SPR (BIAcore T200); PDGF-BB coupled on CM3 chip, Fab injected.

Where two headings read alike, the source gives them in different places.

In general, EC50 refers to the concentration at which the effect is half-maximal. Lower therefore signals greater potency. As usually defined, the koff is the rate constant with which the complex falls apart. A higher koff goes with fast dissociation. For orientation: kon means the rate constant with which the complex forms. For orientation: IC50 means the midpoint of a concentration-inhibition curve. A lower IC50 goes with greater potency in that assay. A word on the t½: it is how long it takes for the measured level to halve. The low end stands for rapid decline, the high end for slow decline.

Sequence of rat IL-1beta (Q63264 117-268 limits assumed): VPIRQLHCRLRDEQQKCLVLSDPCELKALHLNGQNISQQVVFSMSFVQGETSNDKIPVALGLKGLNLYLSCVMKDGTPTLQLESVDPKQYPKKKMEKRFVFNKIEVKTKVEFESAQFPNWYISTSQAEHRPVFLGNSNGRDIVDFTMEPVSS
T2 sequence (P10749 118-269 limits assumed): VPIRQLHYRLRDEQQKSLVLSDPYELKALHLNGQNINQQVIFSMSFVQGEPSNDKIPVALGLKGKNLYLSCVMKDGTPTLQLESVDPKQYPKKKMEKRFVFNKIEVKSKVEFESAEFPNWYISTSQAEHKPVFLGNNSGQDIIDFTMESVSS
T5 sequence (P01127 82-190 limits assumed): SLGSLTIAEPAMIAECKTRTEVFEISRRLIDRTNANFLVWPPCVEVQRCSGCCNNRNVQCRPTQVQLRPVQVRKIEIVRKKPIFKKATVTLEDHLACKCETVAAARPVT
Sequence of rabbit IL-1beta (P14628 117-268 limits assumed): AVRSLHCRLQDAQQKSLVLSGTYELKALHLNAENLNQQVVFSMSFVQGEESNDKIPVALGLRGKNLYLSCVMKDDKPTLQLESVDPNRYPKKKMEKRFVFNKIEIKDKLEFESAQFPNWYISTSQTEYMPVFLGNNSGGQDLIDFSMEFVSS
Sequence of rat PDGF-BB (Q05028 74-182 limits assumed): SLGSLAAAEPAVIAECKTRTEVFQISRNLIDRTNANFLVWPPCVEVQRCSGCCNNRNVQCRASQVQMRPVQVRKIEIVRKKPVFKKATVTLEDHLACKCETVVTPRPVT
T6 sequence (P31240 82-190 limits assumed): as the sequence (Q05028 74-182 limits assumed) above, with V83I, V102I counted along it
Description for rat IL-1beta: as §2

B1: IL-1beta-mumAb (antibody, V domains shown)
VH: EVQLQQSGPELEKPGASVKISCKASGYSFTDYNMNWVRQSNGKSLEWIGNIDPYYGGTTYNQKFKDKATLTVDKSSSTAYMQLKSLTSEDSAVYYCAREGSPTRYYVMDYWGQGTSVTVSS
VL: DIQMTQSPASLSASVGETVTITCRASENIYSNLAWYQQKQGKSPQLLVYAATNLADGVPSRFSGSGSGTQFSLKINSLQPEDFGSYYCHHFYNTPWTFGGGTKLEIK
notes: Murine antibody; also called murine anti-human IL-1beta antibody
Turning to B1, the Kd in the test with rabbit IL-1beta was 1.4 nM; in the test with human IL-1beta [9], 0.07 nM; in the test with cynomolgus IL-1beta [10], 0.08 nM; with murine IL-1beta [11] it was 0.49 nM; in the test with rat IL-1beta it was 0.31 nM. Moreover, the “IC50, inhibition of ICAM-1 expression upon IL-1beta stimulation of A549 cells” value with human IL-1beta [1] amounted to 0.7 nM. Also, in the test with human IL-1beta [2], the “IC50, inhibition of ICAM-1 expression upon IL-1beta stimulation of HUVEC cells” value is 16.5 nM. Besides, the “EC50, reduction of IL-6 expression upon IL-1beta stimulation of A549 cells” value in the test with human IL-1beta [3] was 1.09 nM. The EC50 turned out to be 0.0231 µg/mL with murine IL-1beta [4]; 0.0213 µg/mL with cynomolgus IL-1beta [5]; 0.0152 µg/mL in [6]; 0.034 µg/mL in the test with human IL-1beta [7]; 0.154 nM with murine IL-1beta [8]; 0.142 nM in the test with cynomolgus IL-1beta [12]. Further, the results for the EC50 (in test [13]; in the test with human IL-1beta [14]) were 0.101 nM and 0.227 nM, respectively. Moreover, the koff in the test with human IL-1beta [9] was 7.5e-05 s⁻¹; in the test with cynomolgus IL-1beta [10] it was 9.5e-05 s⁻¹; with murine IL-1beta [11] it was 0.00122 s⁻¹; with rat IL-1beta, 0.000636 s⁻¹. Besides, the kon in the test with human IL-1beta [9] was determined as 1.12e+06 M⁻¹ s⁻¹; in the test with cynomolgus IL-1beta [10], 1.15e+06 M⁻¹ s⁻¹; with murine IL-1beta [11], 2.47e+06 M⁻¹ s⁻¹; with rat IL-1beta, 2.04e+06 M⁻¹ s⁻¹. The IC50 was 2.5 nM in the test with human IL-1beta [15]; 1.54 nM in [16]; 0.88 nM in test [17]; 0.231 µg/mL in test [18]; 0.132 µg/mL in test [19].

B2: PDGF-B-mumAb (antibody, V domains shown)
VH: QVQLQQSGAELMKPGASVKISCKATGYTFSSYWIEWVKQRPGHGLEWIGEILPGSGSTNYNEKFKVKATFTADTSSNTAYMQLSSLTSEDSAVYYCAQTTQDFDSWGQGTTLTVSS
VL: DIVLTQSPGSLAVSLGQRATISCRASESVDIYGYSFMHWYQQKPGQPPKLLIYRASNLESGIPARFSGSGSRTDFTLTINPVEADDVATYYCQQSNEDPRTFGGGTKLEIK
notes: Murine antibody; also called murine anti-human PDGF-B antibody
In the case of B2, the T½ with human PDGF-BB [20] is 2870 s. Moreover, the EC50 with human PDGF-BB [21] was 0.0163 µg/mL; with murine PDGF-BB it was 8.8 ng/mL; with rat PDGF-BB, 5.12 ng/mL; with human PDGF-AA, 2.04 ng/mL. For the same molecule, the “IC50 Phospho-Inhibition” value with human PDGF-BB [22] and with human PDGF-BB [23] was 1.7 ng/mL throughout. The “IC50 Proliferation 3T3” value with human PDGF-BB [22] and with human PDGF-BB [23] was 55.1 ng/mL each time. Moreover, in the test with human PDGF-BB [24], the Kd stood at 0.042 nM. The koff with human PDGF-BB [25] stood at 0.00045 s⁻¹. Besides, the t½ with human PDGF-BB [25] was determined as 26 min. In addition, the IC50 in the test with human PDGF-BB [26] turned out to be 0.0122 µg/mL.

B3: PDGF-B-mumAb Fab (Fab, V domains shown)
VH: QVQLQQSGAELMKPGASVKISCKATGYTFSSYWIEWVKQRPGHGLEWIGEILPGSGSTNYNEKFKVKATFTADTSSNTAYMQLSSLTSEDSAVYYCAQTTQDFDSWGQGTTLTVSS
VL: DIVLTQSPGSLAVSLGQRATISCRASESVDIYGYSFMHWYQQKPGQPPKLLIYRASNLESGIPARFSGSGSRTDFTLTINPVEADDVATYYCQQSNEDPRTFGGGTKLEIK
notes: Fab fragment of PDGF-B-mumAb
In the test with human PDGF-BB [27], B3 registered a T½ of 345 s. Also, the Kd with human PDGF-BB [28] was 5 nM. Moreover, in the test with human PDGF-BB [29], the Kd stood at 5 nM, the off-rate (koff) is 0.00201 s⁻¹, the kon stood at 439000 M⁻¹ s⁻¹ and the t½ worked out at 345 s.
